Patent US20240352439, “POLYPEPTIDES AND METHODS FOR MODIFYING NUCLEIC ACIDS” (THE UNIVERSITY OF CHICAGO, published 2024)

Key:
Assay in all cases: kapp, same conditions
TadA8r (TadA-RA5.2) = TadA8r (TadA-RA5.2) (Escherichia coli); details: tags: 6xHis-MBP removed by TEV; label: 5'-FAM
Source text: (§1) We compared adenine deamination efficiency of TadA8r in ssDNA with TadA8.20 and TadA8e. Maltose binding protein (MBP) fused TadA8r, TadA8.20, and TadA8e were purified through immobilized metal affinity chromatography. A Tobacco Etch Virus (TEV) protease cutting site was installed between MBP and TadA*. After TEV proteinase treatment, TadA8r, TadA8.20, and TadA8e were purified by immobilized metal affinity chromatography, ion-exchange chromatography, and size-exclusion chromatography. DNA deamination assays were carried out using […] ssDNA oligos under single-turnover conditions. A-to-I conversion was measured to determine the apparent first-order deamination rate constant (kₐₚₚ) (FIG. 2a). Both TadA8.20 and TadA8e preferred TA over GA (kₐₚₚ=0.07 min⁻¹ and 0.08 min⁻¹ for TadA 8.20 on GA and TA probes, respectively; kₐₚₚ=0.01 min⁻¹ and 0.02 min⁻¹ for TadA8e on GA and TA probes, respectively). The kₐₚₚ for TadA8r is much higher—0.55 min⁻¹ on the GA probe and 0.39 min⁻¹, on the TA probe).
(§2) The single turnover DNA deamination reactions containing 4 uM TadA variants in deamination buffer (50 mM Tris, 25 mM KCl, 2.5 mM MgCl₂, 2 mM dithiothreitol, and 10% (v/v) glycerol; pH 7.5) and 5′ Fluorescein labeled ssDNA (IDT) (Supplementary Table 6) to a final concentration of 200 nM. All reactions were incubated at 37° C. At various time points (0, 1, 5, 10, 20, 60, 180 mins), 10 uL reaction mixture were aliquoted and quenched by adding 10 ul of hot water and incubating at 95° C. for 10 min. Reaction mixtures were supplied with 100 ug/ml Proteinase K (Fisher scientific) and incubated at 55° C. for 3 h followed by inactivating at 85° C. for 30 mins and 95° C. for 15 mins. To detected adenosine deamination, reaction mixture was incubated with 10 unit of E. coli EndonucleaseV in 1×NEB4 buffer at 37° C. for 1 h. After cleavage by EndoV, samples were mixed with 2-fold PAGE gel loading buffer (95% formamide, 10 mM EDTA, 0.025% SDS), heated at 95° C. for 5 min, resolved on 15% (v/v) denaturing polyacrylamide gel. Uncleavage substrate and cleavage product were visualized by ChemiDoc XRS+(Bio-rad) under fluorescein channel. DNA band quantification were analyzed using ImageJ Software. Curve fitting was done in GraphPad.

TadA8e = TadA8e (Escherichia coli); details: tags: MBP removed by TEV; label: 5'-FAM
Source text: as §1, §2

TadA8.20 = TadA8.20 (Escherichia coli, UniProt P68398 SEQ:1-167); details: tags: MBP removed by TEV; label: 5'-FAM
Source text: as §1, §2

B1: TA probe (ssDNA)
DNA: TGGGTTGGTTATCGTTTGGTGG
Work on B1 yielded an activity (TadA8r (TadA-RA5.2)) of 0.39 min⁻¹, an activity (TadA8e) of 0.02 min⁻¹ and an activity (TadA8.20) of 0.08 min⁻¹.

B2: GA probe (ssDNA)
DNA: TGGGTTGGTGATCGTTTGGTGG
Binder B2 has an activity (TadA8e) of 0.01 min⁻¹ and an activity (TadA8.20) of 0.07 min⁻¹.
